The text below walks through data of article PMC5071832, “Molecular basis for catalysis and substrate-mediated cellular stabilization of human tryptophan 2,3-dioxygenase” (Scientific Reports, 2016).

This data set deals with the molecule itself. Put plainly: crystal structure; ferrous hTDO (45 mg/ml) with 10 mM L-Trp, under-oil microbatch, anaerobic, 18 °C; precipitant 50 mM sodium citrate pH 5.6, 5% PEG 3350, 2% Tacsimate pH 5; one crystal mounted anaerobically, one soaked overnight in O2-saturated solution; four subunits (A-D) form the tetramer.

B1: human tryptophan 2,3-dioxygenase (enzyme)
chain: LPVEGSEEDKSQTGVNRASKGGLIYGNYLHLEKVLNAQELQSETKGNKIHDEHLFIITHQAYELWFKQILWELDSVREIFQNGHVRDERNMLKVVSRMHRVSVILKLLVQQFSILETMTALDFNDFREYLSPASGFQSLQFRLLENKIGVLQNMRVPYNRRHYRDNFKGEENELLLKSEQEKTLLELVEAWLERTPGLEPHGFNFWGKLEKNITRGLEEEFIRIQAKEESEEKEEQVAEFQKQKEVLLSLFDEKRHEHLLSKGERRLSYRALQGALMIYFYREEPRFQVPFQLLTSLMDIDSLMTKWRYNHVCMVHRMLGSKAGTGGSSGYHYLRSTVSDRYKVFVDLFNLSTYLIPRHWIPKMNPTIHKFL
notes: tryptophan 2,3-dioxygenase, human; Heme protein, crystallized in the ferrous state with L-Trp (and O2 or NFK); The construct lacks the N-terminal residues up to at least K17, and K37 lies in a disordered region; also called hTDO; TDO; source: recombinant, purified; oxidized with potassium ferricyanide, G25 column
With B1, the stoichiometry N (in general, the number of molecules, sites or subunits per partner or assembly) was 4.
